{
  "source": "patent US8980543B2",
  "about": "“Method of measuring enzyme activity by multi-dimensional nuclear magnetic resonance” (Canon Kabushiki Kaisha, priority 2007, dated 2015)",
  "biological_target": "T1, MMP2 (Homo sapiens, UniProt P08253)",
  "T1 construct": "purchased R&D systems Inc",
  "T1 sequence (P08253 110-660)": "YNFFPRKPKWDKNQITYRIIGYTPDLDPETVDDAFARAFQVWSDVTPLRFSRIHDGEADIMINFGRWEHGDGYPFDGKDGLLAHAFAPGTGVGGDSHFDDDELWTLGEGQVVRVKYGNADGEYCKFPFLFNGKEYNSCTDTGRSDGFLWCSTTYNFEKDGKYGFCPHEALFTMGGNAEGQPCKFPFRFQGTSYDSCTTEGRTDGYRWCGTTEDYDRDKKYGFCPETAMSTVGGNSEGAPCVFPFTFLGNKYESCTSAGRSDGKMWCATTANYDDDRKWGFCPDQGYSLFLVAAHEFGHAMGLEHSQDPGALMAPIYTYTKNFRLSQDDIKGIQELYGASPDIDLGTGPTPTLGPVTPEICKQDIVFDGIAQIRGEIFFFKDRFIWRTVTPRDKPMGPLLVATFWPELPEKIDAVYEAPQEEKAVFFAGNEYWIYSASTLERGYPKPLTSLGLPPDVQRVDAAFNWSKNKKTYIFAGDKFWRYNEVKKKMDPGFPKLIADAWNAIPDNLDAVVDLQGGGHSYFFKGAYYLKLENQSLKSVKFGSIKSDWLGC",
  "assay": "Reaction between MMP2 and substrate peptide-probe, cleavage monitored by HPLC and MALDI-TOF-MS",
  "type": "biochemical",
  "settings": "1 mM peptide, MMP2 1 μg, TCNB buffer pH 7.5, room temperature (25° C.), 18 hours; fragments GPLG and VRGK",
  "method": "A TCNB buffer (50 mM Tris, 10 mM CaCl2, 150 mM NaCl, 0.05% Brij 35, pH 7.5) was used as a buffer for an enzymatic reaction. A MMP2 precursor (R&D systems Inc.) was activated in 1 mM 4-aminophenylmercury acetate (APMA, manufactured by Sigma) in accordance with the protocol attached to the product to obtain activated MMP2 (hereinafter, simply referred to as MMP2). MMP2 (1 μg) was dissolved in 0.9 mL of the reaction buffer. To this solution, 780 μg of the substrate peptide synthesized above was added to obtain a solution containing a peptide in a concentration of 1 mM. The resultant solution was incubated at 25° C. for 18 hours.\nThe peptide was cleaved by an enzyme, MMP2. The peptide solution before and after the reaction with the enzyme was monitored by HPLC analysis (A=H2O/0.1% TFA and C═CH3CN/0.1% TFA; initial 5 minutes: 0% C, 5 to 35 minutes: 0 to 30% C, using an YMC HPLC column, YMC-Pack ODS-A (AAl2S05-2546WT) manufactured by YMC and having a length of 250 mm and an inner diameter of 4.6 mm; a particle diameter of 5 μm, a pore diameter of 12 nm, a flow amount of 0.8 mL/minute; and detection was made at UV of 220 nm). HPLC elution profiles of the peptide solution (MMP−) before treated with the enzyme and the peptide solution (MMP+) after treated with the enzyme are illustrated in FIG. 5.\nThe peak was separated and subjected to MALDI-TOF-MS analysis. […]",
  "data": [
    {"sequence": "GPLGVRGK", "values": [
      {"measurement": "cleavage of the isotope-labeled peptide by MMP2", "result": "completely cleaved"}
    ]}
  ]
}
